According to US20150284465A1 (Chugai, published 2015):

Assays:
[1] = molecular target: T1, human-derived Fcγ receptor IIb (Recombinant Human FcRIIB/C, R&D systems) (human, UniProt P31994 46-217, limits assumed); assay: SPR (Biacore T100), FcγRIIb immobilized on CM5, antibody as analyte at 200 µg/ml, 25 C
T1 construct: Bought recombinant protein, construct not described; also called FcγRIIb
T1 sequence (looked up): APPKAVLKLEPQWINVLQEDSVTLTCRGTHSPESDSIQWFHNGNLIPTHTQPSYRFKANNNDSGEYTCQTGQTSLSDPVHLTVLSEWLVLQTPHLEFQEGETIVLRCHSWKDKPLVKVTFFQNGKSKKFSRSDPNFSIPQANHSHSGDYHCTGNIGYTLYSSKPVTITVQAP
Protocol: The FcγRIIb binding was assessed by the procedure described below. […] The amounts of bound antibody were compared. […] FcγRIIb was immobilized onto the sensor chip CM5 (Biacore) by the amine coupling method. The final amount of immobilized FcγRIIb was about 4,300 RU. Then, the running buffer was injected until the baseline was stabilized. The measurement was carried out after the baseline was stabilized. […] The running buffer used was HBS-EP+ (10 mM HEPES, 0.15M NaCl, 3 mM EDTA, 0.05% v/v Surfactant P20), and the flow rate was 20 μl/min. The measurement temperature was 25° C. The concentration of each IgG or modified form thereof was adjusted to 200 μg/ml. 20 μl of an analyte was injected and allowed to interact with the immobilized FcγRIIb. After interaction, the analyte was dissociated from FcγRIIb and the sensor chip was regenerated by injecting 200 μl of the running buffer. […] This series of injection was repeated twice.

[2] = molecular target: T2, hFcγRIIIaV-His6 (human-derived Fcγ receptor IIIa, Val) (human, UniProt P08637 17-208, limits assumed); assay: SPR (Biacore T100), hFcγRIIIaV-His6 immobilized on CM5, antibody as analyte at 250 µg/ml
T2 construct: also called FcγRIIIa (Val); not shown: His6 tag
T2 sequence (P08637 17-208 F176V limits assumed): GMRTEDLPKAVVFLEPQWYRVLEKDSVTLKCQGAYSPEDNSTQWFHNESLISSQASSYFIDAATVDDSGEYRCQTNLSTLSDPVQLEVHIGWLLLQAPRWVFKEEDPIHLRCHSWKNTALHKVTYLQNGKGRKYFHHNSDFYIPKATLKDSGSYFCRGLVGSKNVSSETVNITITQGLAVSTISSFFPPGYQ
Protocol: The FcγRIIIa binding was assessed by the procedure described below. […] The amounts of bound antibody were compared. […] FcγRIIIa was immobilized onto the sensor chip CM5 (Biacore) by the amine coupling method. […] The running buffer used was HBS-EP+, and the flow rate was 5 μl/min. The sample concentration was adjusted to 250 μg/ml using HBS-EP+. The analysis included two steps: two minutes of association phase where 10 μl of an antibody solution was injected and the subsequent four minutes of dissociation phase where the injection was switched with HBS-EP+. After the dissociation phase, the sensor chip was regenerated by injecting 20 μl of 5 mM hydrochloric acid. The association, dissociation, and regeneration constitute one analysis cycle. Various antibody solutions were injected to obtain sensorgrams. […] 1999 August; 29(8):2613-24.

[3] = molecular target: T3, SR344 (N-terminal 1st to 344th amino acids of soluble human IL-6R) (human, UniProt P08887 20-344, limits assumed); assay: cell-based or functional assay
T3 sequence (looked up): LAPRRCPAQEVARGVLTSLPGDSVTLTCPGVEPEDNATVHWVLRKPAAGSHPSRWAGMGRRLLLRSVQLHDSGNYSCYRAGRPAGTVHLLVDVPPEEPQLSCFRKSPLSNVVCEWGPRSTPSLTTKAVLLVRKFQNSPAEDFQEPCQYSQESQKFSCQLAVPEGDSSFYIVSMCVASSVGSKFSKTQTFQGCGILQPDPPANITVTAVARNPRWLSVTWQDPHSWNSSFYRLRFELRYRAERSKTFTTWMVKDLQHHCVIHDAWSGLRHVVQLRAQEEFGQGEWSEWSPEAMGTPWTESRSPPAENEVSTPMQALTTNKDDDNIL

[4] = molecular target: T4, recombinant human IL-6R sR (R&D systems) (human, UniProt P08887 20-358); assay: SPR (Biacore T100), antibody captured on Protein A, rhIL-6sR as analyte, 25 C
T4 construct: Bought soluble receptor; also called rhIL-6sR; rhIL-s6R
T4 sequence (looked up): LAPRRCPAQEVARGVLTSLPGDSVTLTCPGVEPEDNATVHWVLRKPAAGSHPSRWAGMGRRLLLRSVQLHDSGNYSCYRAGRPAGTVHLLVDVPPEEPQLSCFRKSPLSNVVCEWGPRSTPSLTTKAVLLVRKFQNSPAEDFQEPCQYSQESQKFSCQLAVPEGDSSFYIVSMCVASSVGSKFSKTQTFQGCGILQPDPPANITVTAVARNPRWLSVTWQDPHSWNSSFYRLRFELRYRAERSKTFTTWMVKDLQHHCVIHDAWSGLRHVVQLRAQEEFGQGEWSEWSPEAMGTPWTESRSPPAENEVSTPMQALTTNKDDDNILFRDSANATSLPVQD
Protocol: The antigen-antibody interaction was measured by immobilizing 1,800 to 2,600 RU (resonance units) of rec-Protein A (Zymed) (hereinafter “Protein A”) onto a sensor chip, binding various antibodies onto the chip, and then flowing the antigen over the chip as an analyte. Various concentrations of recombinant human IL-6R sR (R&D systems) (hereinafter “rhIL-6sR”) were used as the antigen. All measurements were carried out at 25° C. The kinetic parameters, association rate constant kₐ (1/Ms) and dissociation rate constant kd (1/s) were calculated from the sensorgrams obtained by measurement. Then, KD (M) was determined based on the rate constants. The respective parameters were determined using Biacore T100 Evaluation Software (Biacore).

[5] = molecular target: T5, soluble GPC3 core polypeptide (human, UniProt P51654 25-563); assay: competitive ELISA on plate-immobilized soluble GPC3 core polypeptide; competitor: biotinylated H0L0 antibody at 0.3 µg/mL
T5 construct: also called soluble GPC3 core protein; soluble glypican-3 core
T5 sequence (P51654 other isoform, or with tags, fused parts or gaps limits assumed): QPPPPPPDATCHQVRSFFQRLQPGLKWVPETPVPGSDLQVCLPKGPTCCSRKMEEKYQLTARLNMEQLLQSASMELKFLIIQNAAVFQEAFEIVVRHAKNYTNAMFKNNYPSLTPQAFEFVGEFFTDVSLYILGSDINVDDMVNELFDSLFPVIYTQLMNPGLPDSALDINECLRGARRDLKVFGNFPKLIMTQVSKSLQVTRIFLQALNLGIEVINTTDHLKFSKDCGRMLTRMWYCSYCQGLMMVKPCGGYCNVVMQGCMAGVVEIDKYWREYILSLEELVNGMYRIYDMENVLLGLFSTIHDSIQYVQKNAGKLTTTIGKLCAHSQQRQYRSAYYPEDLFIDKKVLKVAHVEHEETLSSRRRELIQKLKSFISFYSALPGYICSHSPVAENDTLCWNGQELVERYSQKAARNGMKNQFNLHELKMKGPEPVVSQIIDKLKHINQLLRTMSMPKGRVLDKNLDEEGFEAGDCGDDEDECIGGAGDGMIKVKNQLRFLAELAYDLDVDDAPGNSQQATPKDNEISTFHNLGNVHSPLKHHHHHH
Protocol: 100 μl of the polypeptide solution was added to each well of a 96-well plate. […] After 200 μl of blocking buffer was added, the plate was blocked at 4° C. overnight or longer. […] The plate was incubated at room temperature for one hour, and then washed five times with washing buffer using SkanWasher 400 (Molecular Devices). Goat anti-streptavidin alkaline phosphatase (Zymed) was 20,000-times diluted with substrate buffer and added to the plate at 100 μl/well. The plate was incubated at room temperature for one hour, and then washed five times with washing buffer using SkanWasher 400. The concentration of phosphatase substrate (Sigma) was adjusted to 1 mg/ml using the substrate buffer, and the solution was added to the plate at 100 μl/well. The plate was incubated for one hour.

[6] = molecular target: T5, soluble GPC3 core polypeptide; assay: competitive ELISA on plate-immobilized soluble GPC3 core polypeptide; competitor: biotinylated GPC3-H2L2 antibody at 0.3 µg/mL
Protocol: The binding activities of prepared antibodies were determined by competitive ELISA. […] The plates were incubated at 4° C. for 30 minutes or more for blocking. […] The plates were incubated at room temperature for one hour, and then washed five times with washing buffer using SkanWasher 400 (Molecular Devices). 100 μl of goat anti streptavidin alkaline phosphatase (Zymed) 20,000-times diluted with substrate buffer was added to each well. The plates were incubated at room temperature for one hour, and then washed five times with washing buffer using SkanWasher 400. Phosphatase Substrate (Sigma) was prepared at 1 mg/ml using substrate buffer, and added to each well (100 μl). The plates were incubated for one hour.

B1: WT-M11ΔGK (antibody)
heavy: QVQLQESGPGLVRPSQTLSLTCTVSGYSITSDHAWSWVRQPPGRGLEWIGYISYSGITTYNPSLKSRVTMLRDTSKNQFSLRLSSVTAADTAVYYCARSLARTTAMDYWGQGSLVTVSSASTKGPSVFPLAPSSKSTSGGTAALGCLVKDYFPEPVTVSWNSGALTSGVHTFPAVLQSSGLYSLSSVVTVPSSSLGTKTYTCNVDHKPSNTKVDKTVERKSCVECPPCPAPPVAGPSVFLFPPKPKDTLMISRTPEVTCVVVDVSQEDPEVQFNWYVDGVEVHNAKTKPREEQFNSTYRVVSVLTVLHQDWLNGKEYKCKVSNKGLPSSIEKTISKAKGQPREPQVYTLPPSQEEMTKNQVSLTCLVKGFYPSDIAVEWESNGQPENNYKTTPPVLDSDGSFFLYSKLTVDKSRWQEGNVFSCSVMHEALHNHYTQKSLSLSL
light: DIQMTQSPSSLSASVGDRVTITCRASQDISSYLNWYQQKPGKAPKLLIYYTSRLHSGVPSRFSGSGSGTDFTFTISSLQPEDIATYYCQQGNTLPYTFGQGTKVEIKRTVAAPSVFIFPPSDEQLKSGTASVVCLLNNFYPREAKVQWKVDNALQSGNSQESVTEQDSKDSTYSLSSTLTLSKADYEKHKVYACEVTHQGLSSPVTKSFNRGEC
binding result [1]: binds
binding result [2]: binds

B2: WT-IgG2 (antibody)
heavy: QVQLQESGPGLVRPSQTLSLTCTVSGYSITSDHAWSWVRQPPGRGLEWIGYISYSGITTYNPSLKSRVTMLRDTSKNQFSLRLSSVTAADTAVYYCARSLARTTAMDYWGQGSLVTVSSASTKGPSVFPLAPCSRSTSESTAALGCLVKDYFPEPVTVSWNSGALTSGVHTFPAVLQSSGLYSLSSVVTVPSSNFGTQTYTCNVDHKPSNTKVDKTVERKCCVECPPCPAPPVAGPSVFLFPPKPKDTLMISRTPEVTCVVVDVSHEDPEVQFNWYVDGVEVHNAKTKPREEQFNSTFRVVSVLTVVHQDWLNGKEYKCKVSNKGLPAPIEKTISKTKGQPREPQVYTLPPSREEMTKNQVSLTCLVKGFYPSDIAVEWESNGQPENNYKTTPPMLDSDGSFFLYSKLTVDKSRWQQGNVFSCSVMHEALHNHYTQKSLSLSPGK
light: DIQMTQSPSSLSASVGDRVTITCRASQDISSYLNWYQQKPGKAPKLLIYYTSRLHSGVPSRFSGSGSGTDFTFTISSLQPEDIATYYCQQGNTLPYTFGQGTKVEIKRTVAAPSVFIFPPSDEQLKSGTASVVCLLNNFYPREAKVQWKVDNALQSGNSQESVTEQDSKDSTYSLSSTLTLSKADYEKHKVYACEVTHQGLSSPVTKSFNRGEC
binding result [1]: binds
binding result [2]: binds

B3: RD-6 (antibody, V domains shown)
VH: QVQLQESGPGLVRPSQTLSLTCTVSGYSITSDHAWSWVRQPPGRGLEWIGYISYSGITTYNPSLKSRVTMLRDTSKNQFSLRLSSVTAADTAVYYCARLLARATAMDYWGQGSLVTVSS
VL: DIQMTQSPSSLSASVGDRVTITCRASQDISSYLNWYQQKPGKAPKLLIYYTSRLHSGVPSRFSGSGSGTDFTFTISSLQPEDIATYYCQQGNTLPYTFGQGTKVEIK
notes: VH assembled from the FR and CDR entries of humanized PM-1
BaF3/gp130 neutralizing activity, 100% inhibitory concentration against WT [3]: ~50 fold
Kd [4]: 0.012 nM
fold higher affinity than WT [4]: ~50 fold
koff [4]: 2.8e-05 s⁻¹
kon [4]: 2.3e+06 M⁻¹ s⁻¹

B4: WT-M17ΔGK (antibody, human IgG1, kappa)
heavy: QVQLQESGPGLVRPSQTLSLTCTVSGYSITSDHAWSWVRQPPGRGLEWIGYISYSGITTYNPSLKSRVTMLRDTSKNQFSLRLSSVTAADTAVYYCARSLARTTAMDYWGQGSLVTVSSASTKGPSVFPLAPSSKSTSGGTAALGCLVKDYFPEPVTVSWNSGALTSGVHTFPAVLQSSGLYSLSSVVTVPSSSLGTQTYICNVNHKPSNTKVDKKVEPKSCDKTHTCPPCPAPPVAGPSVFLFPPKPKDTLMISRTPEVTCVVVDVSHEDPEVKFNWYVDGVEVHNAKTKPREEQYNSTYRVVSVLTVLHQDWLNGKEYKCKVSNKGLPSSIEKTISKAKGQPREPQVYTLPPSRDELTKNQVSLTCLVKGFYPSDIAVEWESNGQPENNYKTTPPVLDSDGSFFLYSKLTVDKSRWQQGNVFSCSVMHEALHNHYTQKSLSLSP
light: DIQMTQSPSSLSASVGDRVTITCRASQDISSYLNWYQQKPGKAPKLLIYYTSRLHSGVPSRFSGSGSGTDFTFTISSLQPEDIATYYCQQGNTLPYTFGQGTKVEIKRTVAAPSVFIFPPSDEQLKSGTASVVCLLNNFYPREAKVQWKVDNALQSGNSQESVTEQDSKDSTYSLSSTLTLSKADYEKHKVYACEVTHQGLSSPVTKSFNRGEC
binding result [1]: binds
binding result [2]: binds

B5: antibody H15L4 (antibody, V domains shown)
VH: QVQLVQSGAEVKKPGASVKVSCKASGYTFTDYEMHWIRQPPGQGLEWIGAIDPKTGDTAYSQKFKGRVTLTADKSTSTAYMELSSLTSEDTAVYYCTRFYSYTYWGQGTLVTVSS
VL: DIVMTQSPLSLPVTPGEPASISCRSSQSLVHSNRNTYLHWYQQKPGQAPRLLIYKVSNRFSGVPDRFSGSGSGTDFTLKISRVEAEDVGVYYCSQNTHVPPTFGQGTKLEIK
notes: Point mutant of the anti-glypican 3 antibody H0L0
binding result [5]: binds

B6: GPC3_H1L1 (antibody, human IgG1, kappa, V domains shown)
VH: QVQLVQSGAEVKKPGASVKVSCKASGYTFTDYEMHWIRQPPGKGLEWIGAINPKTGDTAYSQKFKGRVTLTADKSTSTAYMELSSLTSEDTAVYYCTRFYSYTYWGRGTLVTVSS
VL: DIVMTQSPLSLPVTPGQPASISCRASRSLVHSNRNTYLHWYQQKPGQAPRLLIYKVSNRFSGVPDRFSGSGSGTDFTLKISRVEAEDVGVYYCSQNTHVPPTFGRGTKLEIKR
notes: Anti-human GPC3 antibody
binding result [6]: binds

B7: Hspd1.8Lspd1.6 antibody (antibody, V domains shown)
VH: QVQLVQSGAEVKKPGASVTVSCKASGYTFTDYEMHWIRQPPGEGLEWIGAIDPKTGDTAYSQSFQDRVTLTADKSTSTAYMELSSLTSEDTAVYYCTRFYSYTYWGQGTLVTVSS
VL: DIVMTQSPLSLPVTPGEPASISCRASESLVHSNRNTYLHWYQQKPGQAPRLLIYKVSNRFSGVPDRFSGSGSGTDFTLTISSLQAEDVGVYYCSQNTHVPPTFGQGTKLEIK
notes: Anti-glypican 3, lowered isoelectric point; also called Hd1.8Ld1.6
binding result [5]: binds

B8: Hspu2.2Lspu2.2 antibody (antibody, V domains shown)
VH: QVQLVQSGAEVKKPGASVKVSCKASGYTFTDYEMHWIRQPPGKGLEWIGAINPKTGDTAYSQKFKGRVTLTADKSTSTAYMELSSLTSEDTAVYYCTRFYSYTYWGRGTLVTVSS
VL: DIVMTQSPLSLPVTPGQPASISCRASRSLVHSNRNTYLHWYQQKPGQAPRLLIYKVSNRFSGVPDRFSGSGSGTDFTLKISRVEAEDVGVYYCSQNTHVPPTFGRGTKLEIK
notes: Anti-glypican 3, raised isoelectric point; also called Hu2.2Lu2.2
binding result [5]: binds
